From patent US12559749B2, “Methods of rescuing stop codons via genetic reassignment with ACE-tRNA” (UNIVERSITY OF IOWA RESEARCH FOUNDATION, priority 2017, dated 2026)

Tested on: native stop codons (TAA, TAG, TGA), 3′UTR ribosome density
Assay: Ribosome footprint profiling of transcriptome-wide 3′UTRs, HEK293 cells
Type: cell-based, human
From the text: The question was raised whether ACE-tRNAs that show efficacious suppression of premature stop codons may also induce global readthrough of native stop codons. To address this potential “off target” suppression, a transcriptome-wide quantitative profile of actively engaged ribosomes on all cellular transcripts was obtained by generating libraries of ribosome footprints from HEK293 cells expressing exogenous ACE-tRNAs or a control mock plasmid (puc57GG). Streptomycin was removed from the growth media to prevent readthrough artifacts. For comparison, the ribosome footprint library was also generated from cells in the presence or absence of G418 (150 μM, 48 h). […] Only transcripts with a minimum threshold of 5 RPKM in the coding sequence and 0.5 RPKM in the 3′UTR in two replicate libraries were included for the quantitation comparison (254 transcripts in G418 and 495-748 transcripts in ACE-tRNAs). […] ACE-tRNAs examined here had no detectable change of 3′UTR ribosome density with the exception of ACE-tRNA Gln-UAA and Arg-UGA which induced approximately a 2-fold increase in 3′UTR ribosome density for the cognate stop codon complimentary to the ACE-tRNA anticodon. Understanding the biological significance of 2-fold readthrough of protein stops will require further study, but this effect is substantially lower compared to the 100- to 1000-fold suppression of PTC for the same ACE-tRNA.
Multiple in-frame stop codons are frequently found at the end of genes 37-39 and may cause a minor difference in overall 3′UTR ribosome density for ACE-tRNA and G418 treatment. Ribosome occupancy was examined at each nucleotide in the 3′UTR within a 60 nt region downstream of the stop codons. […] Reads were normalized per total million-mapped reads, compared against control cells, and reported as a log 2-fold change as in panel A. More than 5,200 transcripts were mapped to at least 1 footprint in the region of interest. […] Taken together, the ribosome profiling data argue that efficiency of native stop codon suppression by ACE-tRNAs is generally low, and markedly less than the level of PTC suppression.
Ribosome Footprint Profiling Library preparation. HEK293 cells transiently transfected with ACE-tRNAs and control plasmid (puc57GG) were grown in standard grown media in the absence of Pen-Strep for 48 h. Libraries were prepared as described^55, with a few modifications. Briefly, cells were rapidly cooled by addition of ice-cold PBS, lysed in lysis buffer (20 mM Tris-HCl/pH7.4, 150 mM NaCl, 5 mM MgCl2, 1 mM DTT, 1% (v/v) Triton X-100, and 25 U ml^−1 Turbo DNase I) for 10 min on ice, and triturated with ten times through a 26-G needle. […]

B1: Glychr19.trna2: top performing glycine ACE-tRNA UGA, SEQ ID NO: 53 (nucleic acid)
chain: GCGUUGGUGGUAUAGUGGUUAGCAUAGCUGCCUUCAAAGCAGUUGACCCGGGUUCGAUUCCCGGCCAACGCA
modifications: chemistry not given here
readthrough of native stop codons / effect on global translation termination (discussion of profiling data): no significant effect on global translation termination
ribosome occupancy in the early region of 3′UTR downstream of stop codons (per nucleotide, -35 to +65 nt): no observable change of ribosome occupancy
